Source: patent publication US20180265572A1 (Bristol-Myers Squibb, published 2018)
Positions count from the first letter of the chain named. Names may count otherwise. “And” between values parts separate entries of the source, which are not always exact repeats. Equal entries are not always repeated.

What was measured:
human IGF-IR on cells = human IGF-IR on cells (human, UniProt P08069 31-1367); assay: cell-based or functional assay
[1] = molecular target: VEGFR2 fusion protein on Ba/F3 cells (extracellular domain of hVEGFR2 and intracellular domain of hEpoR) (human, UniProt P35968 20-764; P19235 274-508, limits assumed); assay: cell-based or functional assay
human IGF-IR-Fc fusion [2] = molecular target: T1, human IGF-IR-Fc fusion (human, UniProt P08069 31-932); assay: SPR (Biacore), IGF-IR-Fc captured on Protein A/G, HTPP purified binder in solution, n=1, KD approximate
T1 construct: range 1-932; If it counts on the precursor, it includes the signal peptide; also called IGF1R-Fc; not shown: hinge and constant regions of human IgG

human IGF-IR-Fc fusion [3] = molecular target: T1, human IGF-IR-Fc fusion; assay: SPR (Biacore), captured IGF-IR-Fc, midscale material
VEGFR2-Fc (R&D Systems) [4] = molecular target: T2, VEGFR2-Fc (R&D Systems) (UniProt P35968 20-764); assay: SPR (Biacore), immobilised VEGFR2-Fc, midscale material
T2 construct: Bought reagent; not shown: Fc part of the bought fusion; not described

human IGF-IR-Fc fusion [5] = molecular target: T1, human IGF-IR-Fc fusion; assay: SPR (Biacore), captured IGF1R-Fc, midscale purified binder
VEGFR2-Fc (R&D Systems) [6] = molecular target: T2, VEGFR2-Fc (R&D Systems); assay: SPR (Biacore), immobilized VEGFR2-Fc, midscale purified binder
[7] = molecular target: VEGFR-2 in nude mice (in vivo) (UniProt P35918 20-1345, limits assumed); assay: cell-based or functional assay
[8] = molecular target: VEGFR-2 in cynomolgus monkeys (in vivo); assay: cell-based or functional assay
human IGF-IR-Fc fusion [9] = molecular target: T1, human IGF-IR-Fc fusion; assay: SPR (Biacore), IGF1R-Fc captured on Protein A
Description: (§1) Affinity data was also measured from midscale and large scale material, for the pegylated version of the tandem construct 385A08-Fn-V2B-cys (SEQ ID NO: 9, with and without his tag). The specific materials and methods for these calculations are described below.
(§2) An alternative method is to capture the IGF—IR-Fc on Protein A. This method was used for calculating the affinity and kinetics of certain versions of the construct 385A08-Fn-V2B-cys (both pegylated and non-pegylated and with or without his tag) from midscale and large scale materials. Specifically, IGF—IR-Fc was captured on Protein A immobilized on a Biacore CM5 sensor chip by amine coupling. VEGFR2-Fc was immobilized directly on a CM5 chip by amine coupling. The affinity and kinetic analysis involved the capture of IGF—IR-Fc on Protein A followed by injection of the tandem adnectin in solution over IGF—IR-Fc and VEGFR2-Fc. The analytical surface was regenerated between samples with glycine pH 1.5. Sensorgrams were obtained at each concentration and were evaluated using Biacore T100 evaluation software to determine the rate constants kₐ (kₒₙ) and kd (koff).

VEGFR2-Fc (R&D Systems) [10] = molecular target: T2, VEGFR2-Fc (R&D Systems); assay: SPR (Biacore), VEGFR2-Fc immobilized directly on the chip
Description: as §1, §2
The functionality of the V2B domain was assessed by evaluating a concentration series of the midscale and large scale purification of the tandem construct 385A08-Fn-V2B (pegylated, and non-pegylated versions, his-tag and non-his-tag versions) vs. VEGFR2-Fc that was directly immobilized on a CM5 chip surface (GE, Piscataway, N.J.). VEGFR2-Fc (R&D Systems, MN) was diluted to 12 ug/mL in 50 mM Acetate pH 5.0 for an immobilization level of ˜1300 RU. Varying concentrations of 385A08-Fn-V2B in the solution phase were monitored for association (2 minutes) and dissociation (10 minutes) kinetics at a flow rate of 50 uL/min. Two 30 second injections of 50 mM glycine pH 1.7 were used to regenerate the surface.

[11] = molecular target: T3, VEGFR-2 (KDR) on transfected cells (UniProt P35968 20-1356, limits assumed); assay: competitive blocking assay on 293:KDR cells; competitor 200 nM IRDye 800CW-labelled Peg-V2Bshort
T3 construct: whole, on cells; also called Flk-1
Description: Similarly, the pegylated, his-tagged construct 385A08-Fn-V2B-cys was able to block the interaction of a mono-specific ¹⁰Fn3-based VEGFR-2 binder (Peg-V2Bshort, SEQ ID NO: 28) with VEGFR-2 present on 293:KDR cells. […] In particular, in a Ba/F3 assay (described below), the IC₅₀ for the monomeric, non-pegylated VEGFR2 binder V2Bshort (SEQ ID NO: 28) is approximately 0.1-3 nM whereas the IC₅₀ for the monomeric, non-pegylated VEGFR2 binder having SEQ ID NO: 44 (e.g., with an N-terminal extension) is approximately 8-13 nM. […] Both the R⁺ and 293:KDR cell based competitive blocking assays are described in detail in the materials and methods section below.
293:KDR (Sibtech, Brookfield, Conn.) were plated in 96 well plates at a concentration of 25,000 cells per well in DMEM (Invitrogen, Carlsbad, Calif.) containing 10% fetal bovine serum (Hyclone, Logan, Utah). The following day, cells were washed twice in serum free DMEM containing 0.1% BSA (Invitrogen, Carlsbad, Calif.). After the washes, the cells were incubated at 4° C. for 10 minutes in binding buffer (serum free DMEM+0.1% BSA) containing increasing concentrations of VEGFR-2 antagonists or controls. Typical controls included the mono-specific ¹⁰Fn3-based VEGFR2 binder (Peg-V2Bshort, SEQ ID NO: 28) (positive control) or the mono-specific ¹⁰Fn3-based IGF-IR binder (AT580-PEG40, SEQ ID NO: 27) (negative control). […]

B1: 385A08-Fn-V2B-Cys (designed binder)
single chain: MGVSDVPRDLEVVAATPTSLLISWSARLKVARYYRITYGETGGNSPVQEFTVPKNVYTATISGLKPGVDYTITVYAVTRFRDYQPISINYRTEIDKPSTSTSTVSDVPRDLEVVAATPTSLLISWRHPHFPTRYYRITYGETGGNSPVQEFTVPLQPPTATISGLKPGVDYTITVYAVTDGRNGRLLSIPISINYRTEIDKPCQHHHHHH
- IC50, inhibition of proliferation of Rh41 cells (n=1) (human IGF-IR on cells): 33 nM
- IC50, inhibition of VEGF-A dependent proliferation of Ba/F3 cells [1]: 1.3 nM

B2: 385A08-GS5-V2B (designed binder)
single chain: MGVSDVPRDLEVVAATPTSLLISWSARLKVARYYRITYGETGGNSPVQEFTVPKNVYTATISGLKPGVDYTITVYAVTRFRDYQPISINYRTEIDKGSGSGSGSGSVSDVPRDLEVVAATPTSLLISWRHPHFPTRYYRITYGETGGNSPVQEFTVPLQPPTATISGLKPGVDYTITVYAVTDGRNGRLLSIPISINYRTEIDKPSQHHHHHH
notes: also called 385A08-GS5-V2B (Ser tail)
- IC50, inhibition of proliferation of Rh41 cells (n=1) (human IGF-IR on cells): 40 nM
- IC50, inhibition of VEGF-A dependent proliferation of Ba/F3 cells [1]: 1 nM
- Kd (human IGF-IR-Fc fusion [2]): ~0.3 nM

B3: V2B-GS10 (SEQ ID NO: 22)-385A08, his-tagged (designed binder)
chain: MGVSDVPRDLEVVAATPTSLLISWRHPHFPTRYYRITYGETGGNSPVQEFTVPLQPPTATISGLKPGVDYTITVYAVTDGRNGRLLSIPISINYRTEIDKGSGSGSGSGSGSGSGSGSGSVSDVPRDLEVVAATPTSLLISWSARLKVARYYRITYGETGGNSPVQEFTVPKNVYTATISGLKPGVDYTITVYAVTRFRDYQPISINYRTEIDKPSQHHHHHH
notes: also called V2B-GS10-385A08; V2B-GS10-385A08 (Ser tail)
- IC50, inhibition of VEGF-A dependent proliferation of Ba/F3 cells [1]: 1.9 nM
- Kd (human IGF-IR-Fc fusion [3]): 0.05 nM
- Kd (VEGFR2-Fc (R&D Systems) [4]): 0.6 nM
- koff (human IGF-IR-Fc fusion [5]): 0.000204 s⁻¹
- kon (human IGF-IR-Fc fusion [5]): 4.18e+06 M⁻¹ s⁻¹
- koff (VEGFR2-Fc (R&D Systems) [6]): 0.000222 s⁻¹
- kon (VEGFR2-Fc (R&D Systems) [6]): 382000 M⁻¹ s⁻¹
- Kd (human IGF-IR-Fc fusion [2]): ~0.2 nM

B4: AT580-PEG20-AT580 (designed binder)
chain: MGVSDVPRDLEVVAATPTSLLISWSARLKVARYYRITYGETGGNSPVQEFTVPKNVYTATISGLKPGVDYTITVYAVTRFRDYQPISINYRTEIDKPCQ
modifications: the two chains are joined by a 20 kDa PEG at position 98 (cysteine) of each; labelled with IRDye 800CW in the competition assay
- IC50, inhibition of proliferation of Rh41 cells (n=1) (human IGF-IR on cells): 0.07 nM

B5: V2B-GS5-385A08 (designed binder)
single chain: MGVSDVPRDLEVVAATPTSLLISWRHPHFPTRYYRITYGETGGNSPVQEFTVPLQPPTATISGLKPGVDYTITVYAVTDGRNGRLLSIPISINYRTEIDKGSGSGSGSGSVSDVPRDLEVVAATPTSLLISWSARLKVARYYRITYGETGGNSPVQEFTVPKNVYTATISGLKPGVDYTITVYAVTRFRDYQPISINYRTEIDKPSQHHHHHH
notes: also called V2B-GS5-385A08 (Ser tail)
- IC50, inhibition of VEGF-A dependent proliferation of Ba/F3 cells [1]: 2 nM
- Kd (human IGF-IR-Fc fusion [2]): ~0.2 nM

B6: 385A08-GS10 (SEQ ID NO: 22)-V2B, his-tagged (designed binder)
chain: MGVSDVPRDLEVVAATPTSLLISWSARLKVARYYRITYGETGGNSPVQEFTVPKNVYTATISGLKPGVDYTITVYAVTRFRDYQPISINYRTEIDKGSGSGSGSGSGSGSGSGSGSVSDVPRDLEVVAATPTSLLISWRHPHFPTRYYRITYGETGGNSPVQEFTVPLQPPTATISGLKPGVDYTITVYAVTDGRNGRLLSIPISINYRTEIDKPSQHHHHHH
notes: also called 385A08-GS10-V2B; 385A08-GS10-V2B (Ser tail)
- IC50, inhibition of proliferation of Rh41 cells (n=1) (human IGF-IR on cells): 27 nM
- IC50, inhibition of VEGF-A dependent proliferation of Ba/F3 cells [1]: 1.2 nM
- Kd (human IGF-IR-Fc fusion [3]): 0.04 nM
- Kd (VEGFR2-Fc (R&D Systems) [4]): 0.5 nM
- koff (human IGF-IR-Fc fusion [5]): 0.000308 s⁻¹
- kon (human IGF-IR-Fc fusion [5]): 7.72e+06 M⁻¹ s⁻¹
- koff (VEGFR2-Fc (R&D Systems) [6]): 0.000193 s⁻¹
- kon (VEGFR2-Fc (R&D Systems) [6]): 414000 M⁻¹ s⁻¹
- Kd (human IGF-IR-Fc fusion [2]): ~0.3 nM

B7: V2B-Fn-385A08-Cys (designed binder)
single chain: MGVSDVPRDLEVVAATPTSLLISWRHPHFPTRYYRITYGETGGNSPVQEFTVPLQPPTATISGLKPGVDYTITVYAVTDGRNGRLLSIPISINYRTEIDKPSTSTSTVSDVPRDLEVVAATPTSLLISWSARLKVARYYRITYGETGGNSPVQEFTVPKNVYTATISGLKPGVDYTITVYAVTRFRDYQPISINYRTEIDKPCQHHHHHH
- IC50, inhibition of proliferation of Rh41 cells (n=1) (human IGF-IR on cells): 6 nM
- IC50, inhibition of VEGF-A dependent proliferation of Ba/F3 cells [1]: 0.8 nM

B8: V2B-Fn-385A08 (designed binder)
single chain: B7 single chain with C203S
notes: also called V2B-Fn-385A08 (Ser tail)
- IC50, inhibition of VEGF-A dependent proliferation of Ba/F3 cells [1]: 2.2 nM
- Kd (human IGF-IR-Fc fusion [2]): ~0.2 nM

B9: pegylated, non-his-tag version of 385A08-Fn-V2B-cys (designed binder)
chain: MGVSDVPRDLEVVAATPTSLLISWSARLKVARYYRITYGETGGNSPVQEFTVPKNVYTATISGLKPGVDYTITVYAVTRFRDYQPISINYRTEIDKPSTSTSTVSDVPRDLEVVAATPTSLLISWRHPHFPTRYYRITYGETGGNSPVQEFTVPLQPPTATISGLKPGVDYTITVYAVTDGRNGRLLSIPISINYRTEIDKPCQ
modifications: PEG on the single cysteine at position 203
notes: also called 385A08-Fn-V2B-cys (pegylated, no his-tag); 385A08-Fn-V2B-Cys (non-his tagged)
- plasma IC50, indirect-response PD model, nude mice bearing the A673 tumor [7]: 7000 nM
- plasma IC50 (grand mean), PK/PD model, monkeys [8]: 159 nM
- Kd (human IGF-IR-Fc fusion [9]): 0.982 nM and 1.04 nM
- koff (human IGF-IR-Fc fusion [9]): 0.00027 s⁻¹ and 0.000253 s⁻¹
- kon (human IGF-IR-Fc fusion [9]): 275000 M⁻¹ s⁻¹ and 244000 M⁻¹ s⁻¹
- Kd (VEGFR2-Fc (R&D Systems) [10]): 17.2 nM and 5.8 nM
- koff (VEGFR2-Fc (R&D Systems) [10]): 0.000115 s⁻¹ and 7.49e-05 s⁻¹
- kon (VEGFR2-Fc (R&D Systems) [10]): 6670 M⁻¹ s⁻¹ and 13000 M⁻¹ s⁻¹

B10: Peg-V2Bshort (designed binder)
chain: GEVVAATPTSLLISWRHPHFPTRYYRITYGETGGNSPVQEFTVPLQPPTATISGLKPGVDYTITVYAVTDGRNGRLLSIPISINYRTEIDKPCQ
modifications: pegylated at position 93 (single cysteine); the tracer form is labelled with IRDye 800CW
- IC50, inhibition of proliferation of Rh41 cells (n=1) (human IGF-IR on cells): > 50 nM
- IC50, inhibition of VEGF-A dependent proliferation of Ba/F3 cells [1]: 10 nM
- IC50 [11]: ~20 nM
